Data reported in patent publication US20020137891A1, “Protein scaffold and its use to multimerise monomeric polypeptides” (priority 1999, published 2002).
Read-outs that look alike come from different tables or passages of the source.

Columns and labels:
[1] = system: COS-7, PC12, and SH-SY5Y cells; conditions: cited from earlier work
E. coli SV6 groEL673 = experiment: In vivo complementation of thermosensitive groEL mutant at 43° C., strain SV6; type: cell-based; conditions: for Relative colony forming ability, SV6 groEL673: pJC plasmid, relative to growth at 30° C.
Procedure: (§1) In vivo complementation experiments. Complementation experiments were performed by transforming electro-competent SV2 or SV6 cells with the pJC series of expression vectors and plating an aliquot of the transformation reactions directly at 43° C. The percentage of viable cells relative to the growth at 30° C. was determined. A representative number of clones which grew at 43° C. were incubated in absence of any selective markers at permissive temperature. After prolonged growth the loss of the pJC plasmids and the ts phenotype were verified. Each experiment was performed in duplicate. Plasmids carrying no groE genes or encoding the GroE proteins were used as negative or positive controls, respectively.

bacteriophage λ (b2cI) = experiment: Growth (plaque formation) of bacteriophage λ at 30° C. in transformed wild-type and groEL mutant strains; type: cell-based, E. coli; set-up: key to Growth of bacteriophage λ, SV1 (groEL^+) / Growth of bacteriophage λ, SV2 groEL44: +++: normal plaque-forming ability relative to wild-type groEL^+ strain, in terms of both number and size; ++: 5-fold fewer plaques relative to wild-type groEL^+ strain, or both; 10-fold fewer plaques, or plaque size reduced relative to wild-type groEL^+ strain, or both; +/−: 10^2-fold fewer plaques and plaque size reduced relative to wild-type groEL^+ strain; no visible plaques (<10^−4); conditions: for Growth of bacteriophage λ, SV1 (groEL^+) / Growth of bacteriophage λ, SV2 groEL44 / Growth of bacteriophage λ, SV3 GroEL59 / Growth of bacteriophage λ, SV6 groEL673: pJC plasmid
Description: (§2) Bacterial and bacteriophage strains. The E. coli strains used in this study were: C41(DE3), a mutant of BL21(DE3) capable of expressing toxic genes (Miroux, B. & Walker, J. E. (1996) J. Mol. Biol. 260, 289-298); SV2 (B178groEL44), SV3 (B178groEL59) and SV6 (B178groEL673): isogenic strains carrying temperature-sensitive alleles of groEL; SV1(=B178) (Georgopoulos, C., Hendrix, R. W., Casjens, S. R. & Kaiser, A. D. (1973) J. Mol. Biol. 76, 45-60), AI90 (ΔgroEL::kan^R) [pBAD-EL] (Ivic, A., Olden, D., Wallington, E. J. & Lund, P. A. (1997) Gene 194, 1-8), and TG1 (Gibson, T. J. (1984) Ph.D. thesis, University of Cambridge, U.K). Bacteriophage λb2cI (Zeilstra-Ryalls, J., Fayet, O., Baird, L. & Georgopoulos, C. (1993) J. Bacteriol. 175, 1134-1143) was used according to standard methods (Arber, W., Enquist, L., Hohn, B., Murray, N. E. & Murray, K. (1983) in Lambda II., ed. R. W. Hendrix, J. W. r., F. W. Stahl and R. A. Weisberg (Cold Spring Harbor Laboratory, Cold Spring Harbor, N.Y.), pp. 433-466); plaque formation was assayed at 30° C. T4D0, a derivative of bacteriophage T4 (Zeilstra-Ryalls, J., Fayet, O., Baird, L. & Georgopoulos, C. (1993) J. Bacteriol. 175, 1134-1143), was used according to standard methods (Karam, J. D. (1994) Molecular biology of bacteriophage T4. (American Society for Microbiology, Washington, D.C.)); plaque formation was assayed at 37° C.
(§3) Bacteriophage λ requires the chaperonins GroES and GroEL for protein folding during morphogenesis; bacteriophage T4 requires GroEL and Gp31, the latter being encoded by the bacteriophage genome (Zeilstra-Ryalls, J., Fayet, O. & Georgopoulos, C. (1991) Annu. Rev. Microbiol. 45, 301-325). Nine groE alleles which fail to support λ growth have been sequenced (Zeilstra-Ryalls, J., Fayet, O., Baird, L. & Georgopoulos, C. (1993) J. Bacteriol. 175, 1134-1143). We examined the ability of MC7, over-expressed from the constitutive tet promoter on a high-copy number vector (see FIG. 2), to complement three mutant groEL alleles for plaque formation by λ (b2cI) at 30° C. (Table 3) and T4 at 37° C. (Table 4).

E. coli SV2 groEL44 = experiment: In vivo complementation of thermosensitive groEL mutant at 43° C., strain SV2; type: cell-based; conditions: for Relative colony forming ability, SV2 groEL44: pJC plasmid, relative to growth at 30° C.
Procedure: as §1

bacteriophage T4 (T4D0) [2] = experiment: Growth (plaque formation) of bacteriophage T4 at 37° C. in transformed wild-type and groEL mutant strains; type: cell-based, E. coli; set-up: key: +++: normal plaque-forming ability relative to wild-type groEL^+ strain, in terms of both number and size; ++: 5-fold fewer plaques relative to wild-type groEL^+ strain, or both; 10-fold fewer plaques, or plaque size reduced relative to wild-type groEL^+ strain, or both; +/−: 10^2-fold fewer plaques and plaque size reduced relative to wild-type groEL^+ strain; no visible plaques (<10^−4); conditions: pJC plasmid
Description: as §2, §3

bacteriophage T4 (T4D0) [3] = experiment: as above; type: cell-based, E. coli; conditions: text prints 30° C. (Table 3)
[4] = system: AI90 (ΔgroEL::kan^R) [pBADEL] E. coli strain; experiment: Plating ability of transformed AI90 (ΔgroEL::kan^R) [pBAD-EL] at 37° C. on depletion of GroEL; type: cell-based; set-up: key: +++: growth identical to that in presence of 0.2% L(+)arabinose (100%), in terms of both number and size; ++: about 50% of the colonies relative to that in presence of 0.2% L(+)arabinose; +: about 30% of the colonies; +/−: ≦5% of the colonies and size reduced relative to that in presence of 0.2% L(+)arabinose; −: no visible colonies
Procedure: AI90 (ΔgroEL::kan^R) [pBAD-EL] cells were transformed with the pJC vector series. Transformants were selected at 37° C. on LB supplemented with 50 μg.ml^−1 of kanamycin, 120 μg.mL^−1 of ampicillin, 25 μg.mL^1 of chloramphenicol and 0.2% L(+)arabinose. Depletion of GroEL protein was analysed at 37° C. by plating the same quantity of AI90 [pBAD-EL+pJC vectors] cells on LB plates containing 1% D(+)glucose or various amount of arabinose.
Each experiment was performed in triplicate. Plasmids carrying no groE genes or encoding the GroE proteins were used as negative or positive controls, respectively.

CC(=O)N[C@@H](CSC(=O)[C@]1([C@@H](O)C(C)C)NC(=O)[C@H](C)[C@@H]1O)C(=O)O [lactacystin]
proportion of cells with inclusions of mutant Huntington exon 1 ([1]; treatment of transfected cells): increased

HDJ-2/HSDJ: a human HSP40 homologue
inclusion formation ([1]; overexpression in COS-7 cells): increased inclusion formation | inclusion formation ([1]; overexpression in PC12 and SH-SY5Y cells): did not modify inclusion formation

B1: Gp31 (1-111): wild-type bacteriophage T4 Gp31 (gene product), cpn10 family co-chaperonin (protein, UniProt P17313 1-111, looked up)
Capsid assembly protein Gp31: MSEVQQLPIRAVGEYVILVSEPAQAGDEEVTESGLIIGKRVQGEVPELCVVHSVGPDVPEGFCEVGDLTSLPVGQIRNVPHPFVALGLKQPKEIKQKFVTCHYKAIPCLYK
Relative colony forming ability, SV6 groEL673 (E. coli SV6 groEL673): <10^−4 | Growth of bacteriophage λ, SV1 (groEL^+) (bacteriophage λ (b2cI)): +++ | Growth of bacteriophage λ, SV2 groEL44 (bacteriophage λ (b2cI)): − (no visible plaques (<10^−4)) | Growth of bacteriophage λ, SV3 GroEL59 (bacteriophage λ (b2cI)): − (no visible plaques (<10^−4)) | Growth of bacteriophage λ, SV6 groEL673 (bacteriophage λ (b2cI)): − (no visible plaques (<10^−4)) | Relative colony forming ability, SV2 groEL44 (E. coli SV2 groEL44): 0.5 × 10^−3 | Growth of bacteriophage T4, SV1 (groEL^+) (bacteriophage T4 (T4D0) [2]): +++ | Growth of bacteriophage T4, SV2 groEL44 (bacteriophage T4 (T4D0) [2]): +++ | Growth of bacteriophage T4, SV3 groEL59 (bacteriophage T4 (T4D0) [2]): +++ | Growth of bacteriophage T4, SV6 groEL673 (bacteriophage T4 (T4D0) [2]): +++ | Effect of over-expression on bacteriophage T4 growth in groEL strains (in words) (bacteriophage T4 (T4D0) [3]): allows T4 growth in all strains

B2: GroES (1-97): E. coli co-chaperone, seven membered ring of 10 kD subunits (protein, UniProt P0A6F9 1-97, looked up)
Co-chaperonin GroES: MNIRPLHDRVIVKRKEVETKSAGGIVLTGSAAAKSTRGEVLAVGNGRILENGEVKPLDVKVGDIVIFNDGYGVKSEKIDNEEVLIMSESDILAIVEA
Relative colony forming ability, SV6 groEL673 (E. coli SV6 groEL673): <10^−4 | Complementation of groEL mutant strains for bacteriophage λ growth (in words) (bacteriophage λ (b2cI)): allele-specific complementation | Effect of over-expression on plaque formation by bacteriophage λ in SV1 (groE^+) (in words) (bacteriophage λ (b2cI)): had no effect | Growth of bacteriophage λ, SV1 (groEL^+) (bacteriophage λ (b2cI)): +++ | Growth of bacteriophage λ, SV2 groEL44 (bacteriophage λ (b2cI)): +++ | Growth of bacteriophage λ, SV3 GroEL59 (bacteriophage λ (b2cI)): − (no visible plaques (<10^−4)) | Growth of bacteriophage λ, SV6 groEL673 (bacteriophage λ (b2cI)): − (no visible plaques (<10^−4)) | Relative colony forming ability, SV2 groEL44 (E. coli SV2 groEL44): 5 × 10^−3 | Growth of bacteriophage T4, SV1 (groEL^+) (bacteriophage T4 (T4D0) [2]): +++ | Growth of bacteriophage T4, SV2 groEL44 (bacteriophage T4 (T4D0) [2]): +++ | Growth of bacteriophage T4, SV3 groEL59 (bacteriophage T4 (T4D0) [2]): +++ | Growth of bacteriophage T4, SV6 groEL673 (bacteriophage T4 (T4D0) [2]): − (no visible plaques (<10^−4)) | Effect of over-expression on bacteriophage T4 growth in groEL strains (in words) (bacteriophage T4 (T4D0) [3]): allele-specific complementation

B3: sht-GroEL (191-376): histidine-tagged (short histidine tail; sht) minichaperone GroEL(191-376) (protein, UniProt P0A6F5 191-376, looked up, fragment)
chain: EGMQFDRGYLSPYFINKPETGAVELESPFILLADKKISNIREMLPVLEAVAKAGKPLLIIAEDVEGEALATLVVNTMRGIVKVAAVKAPGFGDRRKAMLQDIATLTGGTVISEEIGMELEKATLEDLGQAKRVVINKDTTTIIDGVGEEAAIQGRVAQIRQQIEEATSDYDREKLQERVAKLAGGV
modifications: short histidine tail
Relative colony forming ability, SV6 groEL673 (E. coli SV6 groEL673): <10^−4 | Growth of bacteriophage λ, SV1 (groEL^+) (bacteriophage λ (b2cI)): +++ | Growth of bacteriophage λ, SV2 groEL44 (bacteriophage λ (b2cI)): − (no visible plaques (<10^−4)) | Growth of bacteriophage λ, SV3 GroEL59 (bacteriophage λ (b2cI)): − (no visible plaques (<10^−4)) | Growth of bacteriophage λ, SV6 groEL673 (bacteriophage λ (b2cI)): − (no visible plaques (<10^−4)) | Relative colony forming ability, SV2 groEL44 (E. coli SV2 groEL44): <10^−4 | Growth of bacteriophage T4, SV1 (groEL^+) (bacteriophage T4 (T4D0) [2]): +++ | Growth of bacteriophage T4, SV2 groEL44 (bacteriophage T4 (T4D0) [2]): − (no visible plaques (<10^−4)) | Growth of bacteriophage T4, SV3 groEL59 (bacteriophage T4 (T4D0) [2]): +++ | Growth of bacteriophage T4, SV6 groEL673 (bacteriophage T4 (T4D0) [2]): − (no visible plaques (<10^−4)) | Plating ability ([4]; 0.00 % L(+)arabinose): − | Plating ability ([4]; 0.01 % L(+)arabinose): +/− (≦5% of the colonies and size reduced relative to that in presence of 0.2% L(+)arabinose) | Plating ability ([4]; 0.10 % L(+)arabinose): + (about 30% of the colonies) | Plating ability ([4]; 0.15 % L(+)arabinose): ++ (about 50% of the colonies relative to that in presence of 0.2% L(+)arabinose)

B4: sht-GroEL (193-335): shortest minichaperone, short histidine tail GroEL residues 193-335 (protein, UniProt P0A6F5 193-335, looked up, fragment)
chain: MQFDRGYLSPYFINKPETGAVELESPFILLADKKISNIREMLPVLEAVAKAGKPLLIIAEDVEGEALATLVVNTMRGIVKVAAVKAPGFGDRRKAMLQDIATLTGGTVISEEIGMELEKATLEDLGQAKRVVINKDTTTIIDG
modifications: short histidine tail
Complementation of the groEL673 defect in SV6 (in words) (E. coli SV6 groEL673): less well | Relative colony forming ability, SV6 groEL673 (E. coli SV6 groEL673): 0.03-0.05 | Complementation of the groEL44 defect in SV2 (in words) (E. coli SV2 groEL44): complements | Relative colony forming ability, SV2 groEL44 (E. coli SV2 groEL44): 0.05-0.09

B5: sht-GroEL (191-345): short histidine tail minichaperone, GroEL residues 191-345 (protein, UniProt P0A6F5 191-345, looked up, fragment)
chain: EGMQFDRGYLSPYFINKPETGAVELESPFILLADKKISNIREMLPVLEAVAKAGKPLLIIAEDVEGEALATLVVNTMRGIVKVAAVKAPGFGDRRKAMLQDIATLTGGTVISEEIGMELEKATLEDLGQAKRVVINKDTTTIIDGVGEEAAIQGR
modifications: short histidine tail
Complementation of the groEL673 defect in SV6 (in words) (E. coli SV6 groEL673): complemented | Relative colony forming ability, SV6 groEL673 (E. coli SV6 groEL673): 0.07-0.09 | Relative colony forming ability, SV2 groEL44 (E. coli SV2 groEL44): 0.01-0.02
